B1: FAS-associated factor 1 (Homo sapiens), Q9UNN5-1 (parent)
chain: MASNMDREMILADFQACTGIENIDEAITLLEQNNWDLVAAINGVIPQENGILQSEYGGETIPGPAFNPASHPASAPTSSSSSAFRPVMPSRQIVERQPRMLDFRVEYRDRNVDVVLEDTCTVGEIKQILENELQIPVSKMLLKGWKTGDVEDSTVLKSLHLPKNNSLYVLTPDLPPPSSSSHAGALQESLNQNFMLIITHREVQREYNLNFSGSSTIQEVKRNVYDLTSIPVRHQLWEGWPTSATDDSMCLAESGLSYPCHRLTVGRRSSPAQTREQSEEQITDVHMVSDSDGDDFEDATEFGVDDGEVFGMASSALRKSPMMPENAENEGDALLQFTAEFSSRYGDCHPVFFIGSLEAAFQEAFYVKARDRKLLAIYLHHDESVLTNVFCSQMLCAESIVSYLSQNFITWAWDLTKDSNRARFLTMCNRHFGSVVAQTIRTQKTDQFPLFLIIMGKRSSNEVLNVIQGNTTVDELMMRLMAAMEIFTAQQQEDIKDEDEREARENVKREQDEAYRLSLEADRAKREAHEREMAEQFRLEQIRKEQEEEREAIRLSLEQALPPEPKEENAEPVSKLRIRTPSGEFLERRFLASNKLQIVFDFVASKGFPWDEYKLLSTFPRRDVTQLDPNKSLLEVKLFPQETLFLEAKE

Variants of: B1
Conditions: with tera_human VCP

Effect of a mutation on the interaction, decreasing interaction:
P640N
R621A
R579A
F619A
P620N

— IntAct's records for PubMed 21645854
